Data: US7144731B2, “SCF antibody compositions and methods of using the same” (Amgen Inc., priority 1989, dated 2006)

Legend:
murine c-kit (mckit-L1) = biological target: T1, murine c-kit (mckit-L1) (Mus musculus, UniProt P05532); experiment: ^125I-SCF^1-164 binding to recombinant c-kit in COS-1 cells
T1 construct: expressed in transfected cells; host or cells: COS-1 cells transfected with V19.8 carrying c-kit cDNA cloned from MC/9 mast cells; membrane fractions used
Source text: (§1) To test whether SCF^1-164 is the ligand for c-kit, the cDNA for the entire murine c-kit [Qiu et al., EMBO J., 7, 1003–1011 (1988)] was amplified using PCR from the SCF^1-164 responsive mast cell line MC/9 [Nabel et al., Nature, 291, 332–334 (1981)] with primers designed from the published sequence. The ligand binding and transmembrane domains of human c-kit, encoded by amino acids 1–549 [Yarden et al., EMBO J., 6, 3341–3351 (1987)], were cloned using similar techniques from the human erythroleukemia cell line, HEL [Martin and Papayannopoulou, Science, 216, 1233–1235 (1982)]. The c-kit cDNAs were inserted into the mammalian expression vector V19.8 transfected into COS-1 cells, and membrane fractions prepared for binding assays using either rat or human ^125I-SCF^1-164 according to the methods described in Sections B and C below. […] There was no detectable specific binding of ^125I human SCF^1-164 to COS-1 cells transfected with V19.8 alone. However, COS-1 cells expressing human recombinant c-kit ligand binding plus transmembrane domains (hckit-LT1) did bind ^125I-hSCF^1-164 (Table 17). The addition of a 200 fold molar excess of unlabelled human SCF^1-164 reduced binding to background levels. Similarly, COS-1 cells transfected with the full length murine c-kit (mckit-L1) bound rat ^125I-SCF^1-164. […] This finding is in accord with the broad cellular distribution of c-kit expression. Rat ^125I-SCF^1-164 binds similarly to both human and murine c-kit, while human ^125I-SCF^1-164 bind with lower activity to murine c-kit (Table 17).
(§2) Human and murine c-kit cDNA clones were derived using PCR techniques [Saiki et al., Science, 239, 487–491 (1988)] from total RNA isolated by an acid phenol/chloroform extraction procedure [Chomczynsky and Sacchi, Anal. Biochem., 162, 156–159, (1987)] from the human erythroleukemia cell line HEL and MC/9 cells, respectively. Unique sequence oligonucleotides were designed from the published human and murine c-kit sequences. First strand cDNA was synthesized from the total RNA according to the protocol provided with the enzyme, Mo-MLV reverse transcription (Bethesda Research Laboratories, Bethesda, Md.), using c-kit antisense oligonucleotides as primers. Amplification of overlapping regions of the c-kit ligand binding and tyrosine kinase domains was accomplished using appropriate pairs of c-kit primers. These regions were cloned into the mammalian expression vector V19.8 (FIG. 17) for expression in COS-1 cells. […] A clone free of these mutations was constructed by reassembly of mutation-free restriction fragments from separate clones. […]

human c-kit (hckit-LT1) = biological target: T2, human c-kit (hckit-LT1) (Homo sapiens, UniProt P10721); experiment: as above
T2 construct: expressed in transfected cells; host or cells: COS-1 cells transfected with V19.8 carrying c-kit cDNA cloned from HEL cells; membrane fractions used
Source text: as §1, §2

mouse bone marrow cells = experiment: Pre-B cell colony formation in agar cultures; assay type: cell-based
Source text: The ability of recombinant rat SCF^1-164 (rrSCF^1-164), to act synergistically with IL-7 to enhance lymphoid cell proliferation was studied in agar cultures of mouse bone marrow. In this assay, the colonies formed with rrSCF^1-164 alone contained monocytes, neutrophils, and blast-cells, while the colonies stimulated by IL-7 alone or in combination with rrSCF^1-164 contained primarily pre-B cells. Pre-B cells, characterized as B220^+, sIg^−, cμ^+, were identified by FACS analysis of pooled cells using fluorescence-labeled antibodies to the B220 antigen [Coffman, Immunol. Rev., 69, 5 (1982)] and to surface Ig (FITC-goat anti-K, Southern Biotechnology Assoc., Birmingham, Ala.); and by analysis of cytospin slides for cytoplasmic μ expression using fluorescence-labeled antibodies (TRITC-goat anti-μ, Southern Biotechnology Assoc.,). Recombinant human IL-7 (rhIL-7) was obtained from Biosource International (Westlake Village, Calif.). When rrSCF^1-164 was added in combination with the pre-B cell growth factor IL-7, a synergistic increase in colony formation was observed (Table 16), indicating a stimulatory role of rrSCF^1-164 on early B cell progenitors.

T1 sequence (P05532 25-979): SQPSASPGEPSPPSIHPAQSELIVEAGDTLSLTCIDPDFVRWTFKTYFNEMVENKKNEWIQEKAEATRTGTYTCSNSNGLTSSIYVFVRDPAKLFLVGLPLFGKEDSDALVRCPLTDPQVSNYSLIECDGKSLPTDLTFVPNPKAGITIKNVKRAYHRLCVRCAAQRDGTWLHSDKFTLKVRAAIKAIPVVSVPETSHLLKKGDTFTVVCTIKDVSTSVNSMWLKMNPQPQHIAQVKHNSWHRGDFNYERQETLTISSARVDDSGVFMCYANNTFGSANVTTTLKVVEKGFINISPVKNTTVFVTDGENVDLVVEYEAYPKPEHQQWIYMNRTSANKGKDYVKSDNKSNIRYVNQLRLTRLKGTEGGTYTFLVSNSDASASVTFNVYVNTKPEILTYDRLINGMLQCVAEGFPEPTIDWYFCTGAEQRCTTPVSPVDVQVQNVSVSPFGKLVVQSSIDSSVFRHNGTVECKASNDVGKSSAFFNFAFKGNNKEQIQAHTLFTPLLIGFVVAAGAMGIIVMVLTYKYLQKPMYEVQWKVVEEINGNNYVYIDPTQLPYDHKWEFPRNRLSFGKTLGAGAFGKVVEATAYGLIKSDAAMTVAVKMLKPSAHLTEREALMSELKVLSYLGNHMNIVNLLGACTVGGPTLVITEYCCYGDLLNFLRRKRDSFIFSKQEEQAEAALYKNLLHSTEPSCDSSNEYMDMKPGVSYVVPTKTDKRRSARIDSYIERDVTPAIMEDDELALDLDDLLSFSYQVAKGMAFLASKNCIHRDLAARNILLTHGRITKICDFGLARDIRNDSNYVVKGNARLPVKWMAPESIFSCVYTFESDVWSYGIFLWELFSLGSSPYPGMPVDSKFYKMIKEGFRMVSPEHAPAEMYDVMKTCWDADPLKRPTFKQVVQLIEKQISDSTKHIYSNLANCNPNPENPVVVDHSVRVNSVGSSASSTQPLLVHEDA

B1: rrSCF^1-164: recombinant rat SCF^1-164 from E. coli, also used ^125I-labelled (protein)
chain: QEICRNPVTDNVKDITKLVANLPNDYMITLNYVAGMDVLPSHCWLRDMVTHLSVSLTTLLDKFSNISEGLSNYSIIDKLGKIVDDLVACMEENAPKNVKESLKKPETRNFTPEEFFSIFNRSIDAFKDFMVASDTSDCVLSSTLGPEKDSRVSVTKPFMLPPVA
- CPM Bound, ^125I-SCF + cold (murine c-kit (mckit-L1); 1.6 nM ^125I-SCF^1-164 + 320 nM unlabelled SCF^1-164, V19.8:mckit-L1): 600 CPM
- CPM Bound, ^125I-SCF (murine c-kit (mckit-L1); 1.6 nM ^125I-SCF^1-164, plasmid V19.8:mckit-L1): 52,700 CPM
- CPM Bound, ^125I-SCF + cold (human c-kit (hckit-LT1); 1.6 nM ^125I-SCF^1-164 + 320 nM unlabelled SCF^1-164, V19.8:hckit-LT1): 1,100 CPM
- CPM Bound, ^125I-SCF (human c-kit (hckit-LT1); 1.6 nM ^125I-SCF^1-164, plasmid V19.8:hckit-LT1): 70,000 CPM
- Colony Number per 5 × 10^4 mouse bone marrow cells plated (mouse bone marrow cells; 50 ng): 4 ± 2
- Colony Number per 5 × 10^4 mouse bone marrow cells plated (mouse bone marrow cells; 100 ng): 7 ± 4
- Colony Number per 5 × 10^4 mouse bone marrow cells plated (mouse bone marrow cells; 200 ng, mean of triplicate dishes ± SD): 13 ± 2
